Test results: patent US20210315969A1, “GLYCOPROTEINS HAVING LIPID MOBILIZING PROPERTIES AND THERAPEUTIC USES THEREOF” (Aston University, priority 2008, published 2021)
Marks after values point to notes of the source that are not given here.

Legend:
Format in all cases: in vivo
[1] = Daily i.v. ZAG in mature male Wistar rats for 10 days (body weight, composition, plasma metabolites)
Method: Animals Rais Mature male Wistar rats (one year old from our own colony) weighing 540 ±82.5 g were housed individually and treated once daily i. v., with either ZAG in PBS (100 μl) (50 μg per 100 g body weight), or with PBS (100 μl) as a control. Both food and water intake and body weight were measured daily. Animals were given free access to food (Special Diet Services, Essex, UK) and water ad libitum. The animal experiment was carried out under the welfare conditions imposed by the British Home Office. After 10 days treatment the animals were terminated and the body composition determined. Animals were heated to 80-90° C. for 7 days until constant weight was achieved. The water content was then determined from the difference between the wet and dry weight. Lipids were extracted from the dry carcass using a sequence of chloroform:methanol (1:1), ethanolla.cetone (1:1) and diethyl ether (120 ml of each) as described by Lundholm et al (14). The solvents were evaporated and the fat weighed. The non-fat carcass mass was calculated as the difference between the initial weight of the carcass and the weight of water and fat.
(§1) Serum Metabolite Determinations—Non-esterified fatty acids (NEFA) were determined using a Wako-ASC-ACOD kit (Wako Chemical GmbH, Neuss, Germany). Triglycerides were determined using a Triglyceride kit (Sigma Chemical Co., Poole, United Kingdom) and 3-hydroxybutyrate by a quantitative enzymatic determination kit (Sigma). Glucose was measured using a glucose analyser (Beckman, Irvine, Calif.) and glycerol was determined enzymatically using the method of Wieland as described in “Methods of Enzymatic Analysis” (Ed, Bergmeyer, H. U.) Vol. 3, pp1404-1409, published by Academic Press, London (1974).

[2] = test system: protein expression in adipocytes, BAT and gastrocnemius muscle; test: Western blot analysis of tissues of ob/ob mice treated with ZAG
Method: Western Blot Analysis—Freshly excised gastrocnemius muscles were washed in PBS and lysed PHOSPHOSAFE™ Extraction Reagent for 5 min at room temperature followed by sonication at 4° C. The lysate was cleared by centrifugation at 18,000 g for 5 min at 4° C. and samples of cytosolic protein (5 μg) were resolved on 12% sodium dodecyl suflate-polyacrylamide gel electrophoresis at 180V for approximately 1 h. This was followed by transference to 0.45 μm nitrocellulose membranes, which were then blocked with 5% Marvel in Tris-buffered saline, pH 7.5, at 4° C. overnight. Both primary and secondary antibodies were used at a dilution of 1:1000 except anti-myosin (1:250). Incubation was for lh at room temperature, and development was by FCL. Blots were scanned by a densitometer to quantify differences.

[3] = test system: proteasome 'chymotrypsin-like' activity, caspase-3 and caspase-8; test: Proteasome 'chymotrypsin-like' and caspase activity in gastrocnemius muscle; conditions: ob/ob mice treated 5 days
Method: Gastrocnemius muscle was homogenised in 20 mM Tris, pH7.5, 2 mM ATP, 5 mM MgCl2 and 50 mM DTT at 4° C., sonicated and centrifuged at 18,000 g for 10 min at 4° C. to pellet insoluble material, and the resulting supernatant was used to measure ‘chymotrypsin-like’ enzyme activity in the presence or absence of the proteasome inhibitor lactacystin (10 μM). Only lactacystin suppressible activity was considered as true proteasome activity. The activity of caspase-3 was determined by the release of AMC from AcAsp.Gly.Val.Asp.AMC (SEQ ID NO: 3), and the activity of caspase-8 was determined by the release of 7-amino-4-trifluromethylcoumarin (AFC) from the specific substrate Z-Ile Glu Phe Thr Asp-AFC (SEQ ID NO: 4), using the supernatant from above (50 ug protein), and either the caspase-3 or −8 substrate (10 μM) for ih 37° C. in the presence or absence of the caspase-3 (AcAsp Glu Val Asp-CHO) (SEQ ID NO: 5) or caspase-8 (Ile Glu Phe Thr Asp-CHO) (SEQ ID NO: 6) inhibitors (100 μM). The increase in fluorescence due to […], while the increase in fluorescence due to AFC was measured with an excitation wavelength of 400 nm and an emission wavelength of 505 nm. The difference in values in the absence and presence of the caspase inhibitors was a measure of activity.

[4] = 21 day study of ZAG in ob/ob mice
Method: FIG. 7A is a graphical diagram showing weight loss of the ob/ob mice during the 21 day study. ZAG was injected at days 1, 4, 5, 8, 13, 16, 18, and 19; PBS was injected at the same time points.
(§2) Animals—Mice—Homozygous obese (ob/ob) mice from the colony maintained at Aston University were used in the present study. The origin and characteristics of Aston ob/ob mice have been previously described. Male mice (20-21 weeks old, weight 90-100 g) were grouped into three per cage in an air conditioned room at 22 ±2° C. with a 12 h-light:12 h-dark cycle and fed a rat and mouse breeding diet (Special Diet Services, Witham, UK) and tap water ad libitum. They were administered ZAG (35 μg) in PBS (100 μl) b.d. by i.v. administration and body weight and food and water intake were monitored daily. Control mice received PBS alone. Body temperature was measured daily by the use of a rectal thermometer (RS Components, Northants, UK). All animal experiments were carried out in accordance with the U.K. Animals (Scientific Procedures) Act 1986.
as §1

[5] = ZAG i.v. administration to ob/ob mice, 5 day study (body weight, temperature, plasma metabolites)
Method: as §2, §1

[6] = ob/ob mice treated for 120 h, wet weight

B1: Zinc-α2-glycoprotein (protein, listed as Homo sapiens)
chain: QENQDGRYSLTYIYTGLSKHVEDVPAFQALGSLNDLQFFRYNSKDRKSQPMGLWRQVEGMEDWKEDSQLQKAREDMETLKDIVEYYNDSNGSHVLQGRFGCEIENNRSSGAFWKYYYDGKDYIEFNKEIPAWVPFDPAAQITKQKWEAEPVYVQRAKAYLEEECPATLRKYLKYSKNILDRQDPPSVVVTSHQAPGEKKKLKCLAYDFYPGKIDVHWTRAGQVQEPELRGDVLHNGNGTYQSWVVVAVPPQDTAPYSCHVQHSSLAQPLVVPWEAS
notes: recombinant human Zinc-α2-glycoprotein, lipid mobilizing factor, expressed in HEK293F cells
[1]; male rats, before treatment
  Starting weight: 530 ± 45 g
[1]; rats treated for 10 days
  Triglycerides (plasma): 1.1 ± 0.09^a mmol/l
[1]; rats, 10 days
  decrease in plasma levels of non-esterified fatty acids (NEFA): 55%
[1]; rats, significant within 24 h of first administration
  elevation in body temperature: 0.4 °C
[2]; 5 days ZAG
  expression of HSL in epididymal adipocytes: increased expression of HSL
  expression of HSL in subcutaneous or visceral adipocytes: no increase
  expression of UCP1 and UCP3 in BAT and UCP3 in skeletal muscle: increased the expression
[2]; 5 days ZAG, ep, sc, vis adipose tissue
  expression of pERK: increase in expression of pERK only in ep adipose tissue
[2]; gastrocnemius muscle
  phospholipase A2 (PLA2) and p38 mitogen activated protein kinase: attenuated
[2]; no ZAG added to culture medium
  time ZAG expression was maintained in cultured ep adipocytes: 3 days
[2]; ob/ob mice
  expression of HSL and ATGL in epididymal adipose tissue: increases the expression
[2]; skeletal muscle
  actin levels: did not change
[3]
  caspases-3 and -8: attenuated
[4]; first 5 days and 21 day study
  urinary glucose excretion: progressive decrease
[4]; just before maximum weight loss
  peak body temperature: 38.1 °C
[4]; ob/ob mice, 21 day study, before treatment, in g
  Start weight: 93.1 ± 1.9
[4]; ob/ob mice, Day 21 (Table 3)
  BAT: 0.41 ± 0.35 g
  Gastrocnemius: 0.39 ± 0.12 g
  Soleus: 0.18 ± 0.07 g
[5]; ob/ob mice treated for 120 h
  BAT: 0.73 ± 0.12 p < 0.01 g
  NEFA (plasma): 0.73 ± 0.05 p < 0.001 mEq/L
  TG (plasma): 0.9 ± 0.1 p < 0.05 mmol/L
[5]; [6]
  Gastrocncinius: 1.12 ± 0.14 p < 0.01 g
  Soleus: 0.80 ± 0.09 p < 0.01 g
[5]; ob/ob mice, after 4 days of ZAG administration
  rise of body temperature: 0.4 °C
[5]; ob/ob mice, after 5 days, ZAG vs PBS
  weight difference between the groups: 3.5 g
